This is an account of results in patent US20200407467.

Data set [1] relates to T7-SEPARATE PreScission-cleavable clone, monovalent display (T7Select1-2b).
The test system of data set [2] is uncleavable negative control clone (randomly selected 90-aa human peptide from the proteome library).
Data set [3] concerns T7-SEPARATE PreScission-cleavable clone, multivalent display (mid-copy vector).
The test system of data set [4] is Fibrinogen (peptides of the human library).

“PreScission enzyme (human rhinovirus 3C protease, GE Life Sciences)”: in data set [1], the “phage particles recaptured, percent of pre-immobilized phage particles” value is “up to 53% and 43%, respectively”; the “phage particles released, percent of pre-immobilized phage particles” value is given as “up to 53%”; the “recapture of the cleavable peptide spiked 1 to 100 into the human library, fold increase versus mock digest” value is 26-fold increase; the signal-to-noise ratio (highest PreScission concentration versus mock digest) came out at 23.4. In data set [2], the “phage particles recaptured, percent of immobilized phage particles” value is given as ~1% of the immobilized phage particles were similarly recaptured, whether the PreScission enzyme was included in the digest reaction or not. Besides, in data set [3], the “phage particles recaptured, percent of pre-immobilized phage particles” value was “up to 24% and 22.5%, respectively”; the “phage particles released, percent of pre-immobilized phage particles” value is “up to 24% and 22.5%, respectively”; the signal-to-noise ratio (highest PreScission concentration versus mock digest) stood at 11.9.
For Thrombin, the “enrichment in SEPARATE (human library digest)” value in data set [4] is “did not score in the assay, and this was true for other canonical enzyme-substrate pairs such as Thrombin/Fibrinogen”.
